According to publication PMC2650715 (DNA repair, 2008):
Substitutions are numbered along the chain they refer to.

Tests used:
Test in all cases: pull-down
[1] = molecular target: T1, Schizosaccharomyces pombe Rdh54 (S. pombe, UniProt Q09772 1-811)
T1 sequence (looked up): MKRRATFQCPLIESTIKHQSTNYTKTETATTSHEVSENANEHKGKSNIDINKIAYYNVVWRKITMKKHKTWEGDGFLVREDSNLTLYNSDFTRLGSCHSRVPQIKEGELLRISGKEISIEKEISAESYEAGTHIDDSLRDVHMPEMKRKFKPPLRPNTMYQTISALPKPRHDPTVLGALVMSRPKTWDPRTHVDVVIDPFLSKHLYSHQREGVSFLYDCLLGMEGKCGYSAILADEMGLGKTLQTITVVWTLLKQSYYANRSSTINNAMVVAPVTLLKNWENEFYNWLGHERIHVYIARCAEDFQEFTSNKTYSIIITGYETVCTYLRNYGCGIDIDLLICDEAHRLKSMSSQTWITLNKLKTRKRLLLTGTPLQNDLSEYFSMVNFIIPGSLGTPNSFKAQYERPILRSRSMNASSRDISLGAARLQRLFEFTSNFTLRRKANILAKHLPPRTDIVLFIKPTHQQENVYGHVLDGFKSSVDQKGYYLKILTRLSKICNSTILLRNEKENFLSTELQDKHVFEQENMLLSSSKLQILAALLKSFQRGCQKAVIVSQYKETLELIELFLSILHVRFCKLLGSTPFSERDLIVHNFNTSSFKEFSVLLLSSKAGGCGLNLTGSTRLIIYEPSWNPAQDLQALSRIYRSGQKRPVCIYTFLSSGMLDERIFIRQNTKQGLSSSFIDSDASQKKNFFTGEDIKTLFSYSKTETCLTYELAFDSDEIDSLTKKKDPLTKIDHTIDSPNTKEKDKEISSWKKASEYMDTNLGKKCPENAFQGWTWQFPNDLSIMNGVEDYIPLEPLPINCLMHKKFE

[2] = molecular target: T2, Saccharomyces cerevisiae Rdh54 (S. cerevisiae, UniProt P38086 1-958)
T2 sequence (looked up): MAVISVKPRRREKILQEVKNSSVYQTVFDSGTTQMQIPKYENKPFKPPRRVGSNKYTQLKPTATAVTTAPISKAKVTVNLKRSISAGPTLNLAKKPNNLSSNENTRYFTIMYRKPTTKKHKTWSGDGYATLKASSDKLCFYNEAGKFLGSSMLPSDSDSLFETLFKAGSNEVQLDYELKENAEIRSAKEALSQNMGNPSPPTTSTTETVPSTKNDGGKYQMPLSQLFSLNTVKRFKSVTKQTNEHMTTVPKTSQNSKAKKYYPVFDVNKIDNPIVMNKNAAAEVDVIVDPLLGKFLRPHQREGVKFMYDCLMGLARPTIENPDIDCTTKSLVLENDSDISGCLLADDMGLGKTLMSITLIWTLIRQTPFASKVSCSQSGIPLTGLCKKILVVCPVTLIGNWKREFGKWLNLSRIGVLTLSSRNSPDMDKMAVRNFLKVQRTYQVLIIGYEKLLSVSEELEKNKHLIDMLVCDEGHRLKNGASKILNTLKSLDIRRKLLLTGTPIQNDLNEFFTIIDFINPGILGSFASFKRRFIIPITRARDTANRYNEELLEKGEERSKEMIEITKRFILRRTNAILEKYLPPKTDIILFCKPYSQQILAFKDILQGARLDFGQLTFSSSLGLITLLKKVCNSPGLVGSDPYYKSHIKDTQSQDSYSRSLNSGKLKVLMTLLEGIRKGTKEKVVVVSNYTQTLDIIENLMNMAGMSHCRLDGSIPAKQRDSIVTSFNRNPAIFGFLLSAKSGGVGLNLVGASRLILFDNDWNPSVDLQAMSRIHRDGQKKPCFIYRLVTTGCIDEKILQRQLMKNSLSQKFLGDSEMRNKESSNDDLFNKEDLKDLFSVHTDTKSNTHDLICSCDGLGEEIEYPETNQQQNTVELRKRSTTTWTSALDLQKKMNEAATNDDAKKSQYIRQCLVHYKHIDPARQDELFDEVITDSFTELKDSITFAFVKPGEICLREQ

[3] = molecular target: T3, Saccharomyces cerevisiae Rdh54 K352R mutant variant (S. cerevisiae, UniProt P38086 1-958, K352R)
T3 sequence (looked up): T2 sequence (looked up) with K352R

Measured: binding result

B1: Schizosaccharomyces pombe Dmc1 (enzyme, S. pombe, UniProt O42634 1-332, looked up)
chain: MEEFAEGNDDEQMIFSDIEDLTAHGIGMTDIIKLKQAGVCTVQGVHMSTKRFLLKIKGFSEAKVDKLKEAASKMCPANFSTAMEISQNRKKVWSISTGSEALNGILGGGIQSMSITEVFGEFRCGKTQMSHTLCVTAQLPRDMGGAEGKVAFIDTEGTFRPDRIKAIAERFGVDADQAMENIIVSRAYNSEQQMEYITKLGTIFAEDGQYRLLIVDSIMALFRVDYSGRGELSERQQKLNIMLARLNHISEEFNVAVFVTNQVQADPGAAMMFASNDRKPVGGHVMAHASATRLLLRKGRGEERVAKLNDSPDMPEAECSYVITPGGIADVS
modifications: covalently coupled to Affi-Gel 15 beads
binds: all assays above
